Laboratory results as given in publication PMC6355983, “Structure of the Large Extracellular Loop of FtsX and Its Interaction with the Essential Peptidoglycan Hydrolase PcsB in Streptococcus pneumoniae” (mBio, 2019).

T1: PcsB CC (Streptococcus pneumoniae, UniProt A0A0H2ZQ76)
T1 chain: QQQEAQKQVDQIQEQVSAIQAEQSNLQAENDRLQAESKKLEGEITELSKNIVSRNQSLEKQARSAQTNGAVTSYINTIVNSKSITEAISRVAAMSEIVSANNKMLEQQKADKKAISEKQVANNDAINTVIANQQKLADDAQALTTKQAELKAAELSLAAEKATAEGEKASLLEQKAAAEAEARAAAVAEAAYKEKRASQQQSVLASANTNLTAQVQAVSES

T2: PcsB coiled-coil domain, PscBCC(47–267) (Streptococcus pneumoniae, UniProt A0A0H2US70 47-267)
T2 construct: PcsB peptidoglycan hydrolase, Streptococcus pneumoniae, coiled-coil domain, residues 47 to 267; also called PcsB-CC(47–267); His-PscBCC(47–267); source: E. coli strain derived from BL21(DE3)
T2 sequence (looked up): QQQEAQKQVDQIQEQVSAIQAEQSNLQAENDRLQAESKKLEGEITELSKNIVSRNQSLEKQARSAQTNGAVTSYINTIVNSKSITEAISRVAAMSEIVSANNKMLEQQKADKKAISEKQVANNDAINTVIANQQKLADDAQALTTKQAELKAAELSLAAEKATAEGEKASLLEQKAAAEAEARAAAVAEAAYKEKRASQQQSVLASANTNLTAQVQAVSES


Assays:
[1] = biological target: T1, PcsB CC; experiment: ITC; given as Ka
[2] = biological target: T2, PcsB coiled-coil domain, PscBCC(47–267); experiment: ITC; titration of PscBCC with FtsX_(ECL1) (wild type or L115A M119A); 50 mM potassium phosphate, 50 mM NaCl, 0.5 mM EDTA, pH 7.0, 25.0°C; one-site binding model; conditions: both partners purified

| Binder | Kd [1] [µM] | Ka [2] [M⁻¹] | Kd [2] [µM] | dH [2] [kcal/mol] |
| --- | --- | --- | --- | --- |
| FtsX ECL1 (protein) TAKLATDIENNVRVVVYIRKDVEDNSQTIEKEGQTVTNNDYHKVYDSLKNMSTVKSVTFSSKEEQYEKLTEIMGDNWKIFEGDANPLYDAYIVEANAPNDVKTIAEDAKKIEGVSEVQDGGA | 33.3 |  |  |  |
| FtsX large extracellular loop 1 (FtsX_(ECL1)), residues 46 to 168 (domain or fragment, Streptococcus pneumoniae, UniProt Q04LE4 46-168, looked up, FtsX, Streptococcus pneumoniae, large extracellular loop (ECL1), residues 46 to 168; Uniformly 15N-labelled when observed by NMR, unlabelled when added to 15N PcsBCC(47-254) and in ITC; also called wild-type (WT) FtsX_(ECL1); Spn ECL1; source: E. coli strain derived from BL21(DE3); LB or M9 minimal medium with 15NH4Cl) NTAKLATDIENNVRVVVYIRKDVEDNSQTIEKEGQTVTNNDYHKVYDSLKNMSTVKSVTFSSKEEQYEKLTEIMGDNWKIFEGDANPLYDAYIVEANAPNDVKTIAEDAKKIEGVSEVQDGGA |  | 30000 | 34 ± 6 | -2.1 ± 0.2 |
